According to patent US20080299097A1:

Assays:
CX3CR1 (human) = CX3CR1 (human) (UniProt P49238); experiment: cell-based or functional assay
CXCR4 (human) = CXCR4 (human) (UniProt P61073); experiment: cell-based or functional assay
UniProt P61073, sequence (P61073 whole entry): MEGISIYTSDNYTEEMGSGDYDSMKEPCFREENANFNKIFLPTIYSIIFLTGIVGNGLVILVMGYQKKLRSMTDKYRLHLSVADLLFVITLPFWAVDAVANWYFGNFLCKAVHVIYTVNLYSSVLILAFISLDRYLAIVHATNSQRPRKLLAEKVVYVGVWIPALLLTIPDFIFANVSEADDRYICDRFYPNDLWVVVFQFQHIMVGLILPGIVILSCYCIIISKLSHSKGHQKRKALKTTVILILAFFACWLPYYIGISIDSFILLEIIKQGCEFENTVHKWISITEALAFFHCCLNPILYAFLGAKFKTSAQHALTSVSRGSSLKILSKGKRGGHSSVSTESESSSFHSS

UniProt P49238, sequence (P49238 whole entry): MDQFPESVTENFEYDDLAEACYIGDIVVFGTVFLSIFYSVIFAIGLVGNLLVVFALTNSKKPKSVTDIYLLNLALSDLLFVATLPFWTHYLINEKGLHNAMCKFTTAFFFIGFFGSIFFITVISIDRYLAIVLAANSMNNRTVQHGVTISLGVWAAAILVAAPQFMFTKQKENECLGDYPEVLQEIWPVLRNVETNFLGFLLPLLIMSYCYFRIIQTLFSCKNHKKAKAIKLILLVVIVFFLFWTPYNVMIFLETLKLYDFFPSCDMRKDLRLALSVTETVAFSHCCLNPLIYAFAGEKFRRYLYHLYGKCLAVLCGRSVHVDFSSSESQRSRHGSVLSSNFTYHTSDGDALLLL

anti-human CX3CR1 (clone 2A9-1; MBL) (antibody)
decrease of neurosphere-induced migration of RS-MSCs and mMSCs (CX3CR1 (human)): 40%

anti-human CXCR4 (clone 12G5; R&D Systems) (antibody)
decrease of neurosphere-induced migration of RS-MSCs and mMSCs (CXCR4 (human)): 40%
